Data reported in the nanobody polyreactivity screen of Harvey et al. (2022).

Assay: yeast display, Sf9 membrane polyspecificity reagent, FACS + sequencing; frameworks hold sequencing errors
Outline: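 Synthetic nanobody libraries on Saccharomyces cerevisiae BJ5465 were galactose-induced for 36–48 hours, stained 1 hour at 4 °C with 10% biotinylated, detergent-solubilized Sf9 membrane reagent and enriched on streptavidin microbeads. FACS then separated cells into low and high (top ~1%) gates by anti-HA (expression) and streptavidin (reagent binding) fluorescence. Genes were colony-PCR amplified, MiSeq 2 × 250 sequenced and CDR-length filtered. A clone's polyreactivity label is that of its gate of origin.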

Sequence	polyreactivity (PSR sort gate)
QVQLVESGGGLVQAGGSLRLSCAASGRIIYGYARGWYRQAPGKERELVAAISASGGRTYYADSVKGRFTISRDNAKNTVYLQMNSLKPEDTAVYYCARARFYWLTQWSYDYWGQGTQVTVSS	high polyreactivity
QVQLVESGGGLVQAGGSLRLSCAASGITFSWYVMGWSRQAPGKERDLVATITNRGGSTYYADSVKGRFTISRDNAKNTVYLQMNSLKPEDTAVYYCAARKKGSRVGYDYWGQGTQVTVSS	high polyreactivity
QVQLVESGGGLVQAGGSLRLSCASSGSTFFLNAMGWYRQAPGKEREFVAAISYTSTSTYYADSVKGRFTISRDNAKNTVYLQMNSLKPEDTAVYYCAVDAAGWYYTVETGDYAEDYWGQGTQVTVSS	low polyreactivity
QVQLVESGGGLVQAGGSLRLSCAASGSIFWPYAMGWYRQAPGKEREFVDAITWSGGSTYYADSVKGRFTISRDNAKNTVYLQMNSLKPEDTAVYYCAAVPYTRWKGADGDYWGQGTQVTVSS	high polyreactivity
QVQLVESGGGLVQAGGSLRISCAASGRNYSYYAMGWYREAPGKERELVAAITYSGGSTYYADSVKGRFTITRDNAKNTVYLQMNSLKPEDTAVYYCAAGLSIYYWGQGTQVTVSS	low polyreactivity
QVQLVESGGGLVQAGGSLRLSCAASGSTFPSYTMGWYRQAPGKERELVAAITLSGGSTYYADSVNGRFTISRDNAKYTVYLQMNSLKPSDTAVYYCAAYSQRGYYWGQGTQVTVSS	low polyreactivity
QVQLVESGGGLVQAGGSLRLSCAASGSTFSGNAMGWYRQAPGKEREMVAAITSSRGSTYYADSVKGRFTISRDHAQNTVDLQLNSLKPEDTAVYYCNRYSGGRWYPEYYYWGQGTQVTVSS	high polyreactivity
QVQLVESAGGLVQAGGSLRLSCAASGRTFGRYAMGGYRQAPGKERELVAGISGSVGITYYADSVKGRFTISRDNAKNTVYLQMNSLKPEDTAVYYCAVVARAGHKYDYWGQGTQVTVSS	low polyreactivity
QVQLVESGGGLVQAGGSLRLSCAASGFTFGNAMGWYRQAPGKERELVAAITVNGGTTNYADSVKGRFTISRDNAKNTVYLQMNSLKPEDTAVYYCNVDTSYGAAGDYWGQGTQVTVSS	low polyreactivity
QFQLVESGGGLVQAGGSLRLSCAASGRTFRGYAMGWYRQATGTERELVAAITWRGGSTYYADSVKGRFTISRDNEKNTVYLQMNSLKPEDTAVYYCNTLVWSYLGGYYSRYDYWGQGTQVTVSS	high polyreactivity
QVQLVESGGGLVQAGGSLRLSCAASGSTFVPYVMGWYRQAPGKERELVAAISKSGTSTYYADSVKGRFTISRDNAKNTDYLQMNSLKPEDTAVYYCAAVARRQVPYDYWGQGTQVTVSS	high polyreactivity
QVQLVESGRGLVQAGGSLRLSCAASGFIFAYYAMGWYRQAPGKERELVAAITRSGGGTKYADSVKGRFTISRDNAKNTVYLHMNSLKPEDTAVYYCAARWYRQLRDLDYWGQGTQVTVSS	high polyreactivity
QVQLVESGGGLVQAGGSLRLSCAASGFTIQRYAMGWYRQAPGKERELVAAITSGGSTYYADSVKGSFTISRDNAKNTVYFQMNSLKPEDTSVYYCATRAVWSSWGRRYDSWGQGTQVTVSS	high polyreactivity
QVQLVESGGGLVQAGGSLRLSCAASGSIFKANAMGWYRQAPGKERELVATISTSSGGTYYADSVKGRFTISRDNAKNTVYLQMNSLKPEDTAVYYCAALTYPPFYWGQGTQVTVSS	high polyreactivity
QLQLEESGGGLVQAGGSLRLSCAASGSIFDDYAMGWYRQAPGKERELVAAITSGGSTYYADSVKGRFTISRDNAKNTVYLQLNRLKPEDTAVYYRATRYHWSSSFAPVGAYGYWGQGTQVTVSS	low polyreactivity
QVQLVESGGGLVQAGGSLRLSCAASGFTFGDYVMGWYRQAPGKERELVAAITTSGTRTSYADSVKGRFTISRDNAKNTVYLQMNSLKPEDTAVYYCAAEHTNYYYFWQAHYYWGQGTQVTVSS	high polyreactivity
QVQLVESGGGLVQAGGSLRLSCAASVSTFRTNAMGWYRQPPGKEREMVAAITLDGGSTYYADSVKGRFTISRDNEKNTVYLQMNSLKPEDTAVYYCAADVVSVVYLPFVNGGDYWGQGTQVTVSS	low polyreactivity
QVQLVESGGGLVQAGGSLRLSCAASGSISIQYVMGWYRPAPGKERELVAAIRVIGGSTSYADSVKGRFTISRDNAKNTVYLQMNSLKPEDTAVYYCAADWAWTISDGYYYGYPQYDYWGQGTQVTVSS	high polyreactivity
QVQLVESGGGLVQAGGSLRLSCAASGRTFWANAMGWYRPAPGKERELVAAITIGGRTYYADSVKGRFTISRDNAKNTVYLQMNSLKPEDTAVYYCNAGTRRPFPAESGYWGQVTQVTVSS	low polyreactivity
QVQLVESGGGLVQAGGSLRLSCSASGRIFSLYAMGWYRQAPGKESELVAAITWSSGSTYYADSVKGRFTISRDNAKNTVYLQMNSLKPEDTAVYYCDARVFTLLGYSYEYWGEGTQVTVSS	low polyreactivity
QVQLVESGGGLVQAGGSLRLSCAASGFIFYTYAMGWYRQAPGKERELVAAITWDGGSTYYADSVKGRFTISRDTAKNTVYLQMNSLKPEDTAVYYCNAEYGYIRGNYGYWGQGTQVTVSS	low polyreactivity
QVQLVESGGGLVQAGGSLRLSCAASGSIFVSNAMGWYRQAPGKERELVAAISYSTSRTYYADSVKGRFTISRDNAKNTVYLQMNSLKPEDTAVYYCAVRVRVADGRSNYWGQGTQVTVSS	high polyreactivity

Sequence	polyreactivity (PSR sort gate)
QVQLVESGGGLVQAGGSLRLSCAASGRTFYYYTMGWYRQAPGKEREFVAAIRRSGGNTRYADSVKGRFTISRDNAKNTVYLQMNSLKPEDTAVYYCNAGYGYYYGRILQERDYWGQGTQVTVSS	high polyreactivity
QVQLVESGGGLVQAGGSLRLCCAASGSTFGWNAMRSYRQAPGNERELVAAISSSGGITYYADSVKGRFPISRDNAKNTVYLQMNSLKPEDTAVYYCAAERDDDWFNYWGQGTQVTVSS	low polyreactivity
QVQRVESGGGLVQAGGSLRLSCAASGSIVQQYAMGWYRQAPGKERELVAAISYSGGTTYYADSVKGRFTISRDNAKTTVYLQMNSLKPEDTAVYYCAAYYPSGSYDYYWGQGTQVTVSS	low polyreactivity
QVQLVESGGCLVQAGGSLRLSWAASGRTLGGYALGWYRQAPGKERELVAAINRSGTRTYYADSVKGRFTISRDKAKNTVYLQFNSLKPEDTAVYYCAASWYPGSRNYDYGGQGTQVTVSS	high polyreactivity
QVQLVESGGGLVQAGGSLRLSCAASGSTFQPYAMGWSRQAPGKERECVATISGSAGSTYYADSVKGRFKISRDNAKNTVYLQMNSLKPEDTAVYYCKAESPEGYRLLDYWGQGTQVTVSS	low polyreactivity
QDQLVESGGGLVQAGGSLRLSCAASGSTFHLYAMGWYRQAPGKERELVAAITRRGSDTYYADSVKGRFTISRDNAKNTVYLQMNSLKPEDTAVYYCAARDRHPVWGQGTQVTVSS	low polyreactivity
QVQLVETGGGLVQAGGSLRLSCAASGSIFRYNAKGWYRQAPGKEREFVAAITRSGGSTYADSVKGRFTISRDNAKNTVSLQLNSLKPEDTAVYYCAATRLSRYEYWGQGTQVTVSS	low polyreactivity
QVQLVESGRGLVQAGGSLRLSCAASGRIFVSNVMGWYRQAPGKERELVATITIGGITYYADSVKGRFTISRDNAKNTVYLQMNSLKPEDTAVYYCAADRRRFSPYGLYIHPGFDYWGQGTQVTVSS	low polyreactivity
QVQLVESGGGFVQARGSLRLSCAACGRTYFPNAMGWYRQAPGKERELVAAITTSGGITYYADSVKGRFTISRDNAKNTVYLQMNSLKPEDTAVYYCATEWRTTGYRYYYWGQGTQVTVSS	high polyreactivity
QVQLVESGGGLVQAGGSLRLSCAASGNTFYGYAMGWYRQAPGKERELVAAIRGSDGITFYADSVKGRFTISRDNAKNTVYLQMNSLKPEDTAVYYCAKDTYRSPRHDYGYWGQGTQVTVSS	low polyreactivity
QVQLVESGGGLVQAGGSLRLSCAASGRILDYYAMGWYRQAPGKERELVAAISRSGSDTYYADSVKGRFTISRDNAKNTVYLQMNSLKPEDTAVYYCAARWSYRSLARYNYWGQGTQVTVSS	low polyreactivity
QVQLVESGGGLVQAGGSLRLSCAASGFTLQGYAMGWYRQAPGKERELVAAIRWIGTSTYYADSVKGRFTISRDYAKNTVYFQMNSLKPEDTAVYYCAAYRYNTPFGYWGQGTQVTVSS	high polyreactivity
QVQLVESGGGLVQAGGSLSLSCAASGYNFYKNAMGWYRPAPGKERELVAAISTRGGSTYYADSVKGRFTISRDNAQITVYLPMNSLKPEDTAVYYCAASQHRRDWGQGTQVTVSS	high polyreactivity
QVQLVESGGGLVQAGGSLRLSCAASGSTFAKNAMGWYRQAPGKERELVAAITYSGGSTYYADSVKGRFTISRDNAKNTVYLQMNSLKPEDTAVYFCASDVWWSDYRYDYWGQGTQVTVSS	low polyreactivity
QVQLVESGGGLVQAGGSLRLSCAASGRIFDYYPKGWYRQAPGKERELVAAISVRGGSTYYADSVKGRFTISRDNAKNTVYLQMNSLKPEDTAVYYCAARSWPHRTYYYWGQGTQVTVSS	high polyreactivity
QVQLVESGGGLVQAGGSLRLSCAASGYIFTRNAMGWYRQAPGKDRELVAAISQGGGSTYYADSVKGRFTISRDNAKNTVYFQMNSLKPEDTAVYYCAAYFYTFVGYDYWGQGTQVTVSS	low polyreactivity
QVQLVESGAGLVQAGGSLRLSCAASGSTFYINTMGLYRQAPGKEREFVAAITWSGGSTYYADSVKGRFTISRDNAKNSGYLQMNSLKPEDTAVYYSAADLYVGDMDYRGQGTQVTVSS	low polyreactivity
QDQLVESGGGLVQAGGSLRLSCAASGSIFNPYAMGWYRQAPGKERELVAAITSGGYTYADSVKGRFTISRDNAKNTVYLQMNSLKPEDTAVYYCAADRSYVYAGADMYYWGQGTQVTVSS	low polyreactivity
QVQLVESGGGLVQAGGSLRLSCAASVFTFLYYAMGWYRQAPGKERELVAAISSTGGTTYYADSVKGRFTISRDNAKNTVYLQMNSLKPEDTAVYYCAADQGVYRTYWFDYWGQGTQVTVSS	high polyreactivity
QVQLVESGVGLVQAGGSLRLSCVASGLTFSRYAMGWYRQAPGKERELVAAISRRGGTTYYADSVKGRFTISRDNAKNTVYLQMKSLKPEDTAVYYCGAGYITWGSGNWVVTPYAYWGQGTQVSVSS	high polyreactivity
QVQLLESGAGLVQAGGSLRLSCAASGYIFYTYAMGWYRQAPGKERELVAAISSNGGSTYYADSVKGRFTISRDHAKNTVYLQMNSLKPEDTAVYYCAARGPYTRYRLSMDYWGQGTQVTVSS	high polyreactivity
